Substitutions are numbered along the chain they refer to. In names and notes the source's numbering stands.

Here are results for eight molecules from patent publication US6084068, “Elongin A and C functional domains” (Oklahoma Medical Research Foundation, dated 2000).

The experiment concerns the target T1, Elongin BC complex (wild type rat Elongin B and C) (rat, UniProt P62870).
T1 chain 1: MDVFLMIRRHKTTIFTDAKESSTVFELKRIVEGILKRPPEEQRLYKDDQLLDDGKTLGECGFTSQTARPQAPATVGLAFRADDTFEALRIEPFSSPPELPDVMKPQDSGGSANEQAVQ
T1 chain 2: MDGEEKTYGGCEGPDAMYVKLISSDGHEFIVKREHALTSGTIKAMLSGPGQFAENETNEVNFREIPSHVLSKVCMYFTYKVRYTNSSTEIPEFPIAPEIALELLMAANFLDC
Nature of the experiment: refolded with wild type Elongin B and C; TSK SP-NPR HPLC, SDS-PAGE, silver staining.

B1: Elongin A deletion mutant 400-773 (other)
chain: TMSFESYLSYDQPRKKKKKVVKTSGTALGEKGLKKKDSKSTSKNLNSAQKLPKANENKSDKLQPAGAEPTRPRKVPTDVLPALPDIPLPAIQTNYRPLPSLELISSFQPKRKAFSSPQEEEEAGFTGRRMNSKMQVYSGSKCAYLPKMMTLHQQCIRVLKNNIDSIFEVGGVPYSVLEPVLERCTPDQLYRIEECNHVLIEETDQLWKVHCHRDFKEERPEEYESWREMYLRLQDAREQRLRLLTNNIRSAHANKPKGRQAKMAFVNSVAKPPRDVRRRQEKFGTGGAAVPEKVRIKPAPYTTGSSHVPASNSSSSFHSSPEELAYEGPSTSSAHLAPVASSSVSYDPRKPAVKKIAPMMAKTIKAFKNRFSRR
Take B1: the binding result is “binds”.

B2: Elongin A point mutant T549I (other)
chain: MAAESALQVVEKLQARLAANPDPKKLLKYLKKLSVLPITVDILVETGVGKTVNSFRKHEQVGNFARDLVAQWKKLVPVERNNEAEDQDFEKSNSRKRPRDVPQQEEEAEGNYQESWQASGSQPYSPEHRQKKHRKLPELERPHKVAHGHERRDERKRCHKVSPPYSSDPESSDYGHVQSPPPSSPHQMYTDLSRSPEMDQEPIVSHPKPGKVHSNTFQDRLGVSHLGEHQGKGAVSQNKPHKSSHKEKRPVDARGDEKSSVMGREKSHKASSKEESRRLLSEDSAKEKLPSSVVKKEKDREGNSLKKKLSPALDVASDNHFKKPKHKDSEKIKSDKNKQSVDSVDSGRGTGDPLPRAKDKVPNNLKAQEGKVRTNSDRKSPGSLPKVEEMDMDDEFEQPTMSFESYLSYDQPRKKKKKVVKTSGTALGEKGLKKKDSKSTSKNLNSAQKLPKANENKSDKLQPAGAEPTRPRKVPTDVLPALPDIPLPAIQTNYRPLPSLELISSFQPKRKAFSSPQEEEEAGFTGRRMNSKMQVYSGSKCAYLPKMMILHQQCIRVLKNNIDSIFEVGGVPYSVLEPVLERCTPDQLYRIEECNHVLIEETDQLWKVHCHRDFKEERPEEYESWREMYLRLQDAREQRLRLLTNNIRSAHANKPKGRQAKMAFVNSVAKPPRDVRRRQEKFGTGGAAVPEKVRIKPAPYTTGSSHVPASNSSSSFHSSPEELAYEGPSTSSAHLAPVASSSVSYDPRKPAVKKIAPMMAKTIKAFKNRFSRR
As for B2, the binding result was “binds”.

B3: Elongin A point mutant V557E (other)
chain: B2 chain with I549T, V557E
For B3, the binding result is “binds”.

B4: Elongin A point mutant C554F (other)
chain: B2 chain with I549T, C554F
B4: the binding result is listed as “binds”.

B5: Elongin A deletion mutant 1-680 (other)
chain: MAAESALQVVEKLQARLAANPDPKKLLKYLKKLSVLPITVDILVETGVGKTVNSFRKHEQVGNFARDLVAQWKKLVPVERNNEAEDQDFEKSNSRKRPRDVPQQEEEAEGNYQESWQASGSQPYSPEHRQKKHRKLPELERPHKVAHGHERRDERKRCHKVSPPYSSDPESSDYGHVQSPPPSSPHQMYTDLSRSPEMDQEPIVSHPKPGKVHSNTFQDRLGVSHLGEHQGKGAVSQNKPHKSSHKEKRPVDARGDEKSSVMGREKSHKASSKEESRRLLSEDSAKEKLPSSVVKKEKDREGNSLKKKLSPALDVASDNHFKKPKHKDSEKIKSDKNKQSVDSVDSGRGTGDPLPRAKDKVPNNLKAQEGKVRTNSDRKSPGSLPKVEEMDMDDEFEQPTMSFESYLSYDQPRKKKKKVVKTSGTALGEKGLKKKDSKSTSKNLNSAQKLPKANENKSDKLQPAGAEPTRPRKVPTDVLPALPDIPLPAIQTNYRPLPSLELISSFQPKRKAFSSPQEEEEAGFTGRRMNSKMQVYSGSKCAYLPKMMTLHQQCIRVLKNNIDSIFEVGGVPYSVLEPVLERCTPDQLYRIEECNHVLIEETDQLWKVHCHRDFKEERPEEYESWREMYLRLQDAREQRLRLLTNNIRSAHANKPKGRQAKMAFVNSVAKPPRDVRRRQE
As to B5, the binding result was “binds”.

B6: Elongin A deletion mutant 1-730 (other)
chain: MAAESALQVVEKLQARLAANPDPKKLLKYLKKLSVLPITVDILVETGVGKTVNSFRKHEQVGNFARDLVAQWKKLVPVERNNEAEDQDFEKSNSRKRPRDVPQQEEEAEGNYQESWQASGSQPYSPEHRQKKHRKLPELERPHKVAHGHERRDERKRCHKVSPPYSSDPESSDYGHVQSPPPSSPHQMYTDLSRSPEMDQEPIVSHPKPGKVHSNTFQDRLGVSHLGEHQGKGAVSQNKPHKSSHKEKRPVDARGDEKSSVMGREKSHKASSKEESRRLLSEDSAKEKLPSSVVKKEKDREGNSLKKKLSPALDVASDNHFKKPKHKDSEKIKSDKNKQSVDSVDSGRGTGDPLPRAKDKVPNNLKAQEGKVRTNSDRKSPGSLPKVEEMDMDDEFEQPTMSFESYLSYDQPRKKKKKVVKTSGTALGEKGLKKKDSKSTSKNLNSAQKLPKANENKSDKLQPAGAEPTRPRKVPTDVLPALPDIPLPAIQTNYRPLPSLELISSFQPKRKAFSSPQEEEEAGFTGRRMNSKMQVYSGSKCAYLPKMMTLHQQCIRVLKNNIDSIFEVGGVPYSVLEPVLERCTPDQLYRIEECNHVLIEETDQLWKVHCHRDFKEERPEEYESWREMYLRLQDAREQRLRLLTNNIRSAHANKPKGRQAKMAFVNSVAKPPRDVRRRQEKFGTGGAAVPEKVRIKPAPYTTGSSHVPASNSSSSFHSSPEELAYEGPST
Consider B6, for which the binding result was “binds”.

B7: Elongin A internal deletion mutant Δ561-564 (other)
chain: MAAESALQVVEKLQARLAANPDPKKLLKYLKKLSVLPITVDILVETGVGKTVNSFRKHEQVGNFARDLVAQWKKLVPVERNNEAEDQDFEKSNSRKRPRDVPQQEEEAEGNYQESWQASGSQPYSPEHRQKKHRKLPELERPHKVAHGHERRDERKRCHKVSPPYSSDPESSDYGHVQSPPPSSPHQMYTDLSRSPEMDQEPIVSHPKPGKVHSNTFQDRLGVSHLGEHQGKGAVSQNKPHKSSHKEKRPVDARGDEKSSVMGREKSHKASSKEESRRLLSEDSAKEKLPSSVVKKEKDREGNSLKKKLSPALDVASDNHFKKPKHKDSEKIKSDKNKQSVDSVDSGRGTGDPLPRAKDKVPNNLKAQEGKVRTNSDRKSPGSLPKVEEMDMDDEFEQPTMSFESYLSYDQPRKKKKKVVKTSGTALGEKGLKKKDSKSTSKNLNSAQKLPKANENKSDKLQPAGAEPTRPRKVPTDVLPALPDIPLPAIQTNYRPLPSLELISSFQPKRKAFSSPQEEEEAGFTGRRMNSKMQVYSGSKCAYLPKMMTLHQQCIRVLKNIFEVGGVPYSVLEPVLERCTPDQLYRIEECNHVLIEETDQLWKVHCHRDFKEERPEEYESWREMYLRLQDAREQRLRLLTNNIRSAHANKPKGRQAKMAFVNSVAKPPRDVRRRQEKFGTGGAAVPEKVRIKPAPYTTGSSHVPASNSSSSFHSSPEELAYEGPSTSSAHLAPVASSSVSYDPRKPAVKKIAPMMAKTIKAFKNRFSRR
For B7, the binding result was “binds”.

B8: Elongin A internal deletion mutant Δ565-568 (other)
chain: B7 chain with I561N, F562I, E563D, V564S
Turning to B8, the binding result is “binds”.
